The record followed here is patent US9745556B2, “Variants of glycerol dehydrogenase having D-lactate dehydrogenase activity and uses thereof” (UNIVERSITY OF FLORIDA RESEARCH FOUNDATION, INC., priority 2011, dated 2017).

Data set [1] has as its target T1, Bacillus coagulans glycerol dehydrogenase (GlyDH/GDH, native SEQ ID NO: 3) variant D121N (Heyndrickxia coagulans, UniProt A0AAN0T381, D121N).
T1 sequence (A0AAN0T381 1-367 D121N): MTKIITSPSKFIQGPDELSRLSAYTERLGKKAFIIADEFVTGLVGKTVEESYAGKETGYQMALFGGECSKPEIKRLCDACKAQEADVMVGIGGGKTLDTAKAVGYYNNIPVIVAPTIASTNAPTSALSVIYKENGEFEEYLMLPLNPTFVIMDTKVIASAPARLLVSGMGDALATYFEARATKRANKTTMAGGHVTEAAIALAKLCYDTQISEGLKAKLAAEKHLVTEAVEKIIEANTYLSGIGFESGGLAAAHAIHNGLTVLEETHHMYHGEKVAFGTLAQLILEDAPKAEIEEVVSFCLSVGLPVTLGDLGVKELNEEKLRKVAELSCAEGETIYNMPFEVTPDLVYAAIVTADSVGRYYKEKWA
Put plainly: Kinetic properties of mutated glycerol dehydrogenase D121N. The data set is classed as biochemical. The following applies: D121N alone; compared to native enzyme; in words. How it is done:
(§1) Cultures were grown (LB-glucose medium in pH-controlled fermenters) to mid-exponential phase, harvested, and used for enzyme assays as previously described (23). Glycerol dehydrogenase from strain QZ19 was purified using differential ammonium sulfate precipitation followed by anion-exchange and hydrophobic interaction chromatography. GlyDH and GlyDH* were also purified as N-terminal His-tagged enzymes (33). GlyDH and LDH were assayed using standard methods (34, 35).
(§2) During the development of a D-lactate producing B. coagulans derivative (strain QZ19), a glycerol dehydrogenase (GDH) with two mutations (D121N and F245S) evolved to catalyze the reduction of pyruvate to D-lactate (Table 1 and FIG. 7). The first derivative that produced a significant D-lactate titer, strain QZ15, carried a single mutation that changed the amino acid phenylalanine at position 245 to serine. As strain QZ15 was further selected for higher lactate productivity, the GDH protein acquired a second mutation in amino acid position 121 (D121N) (FIG. 15). Combination of these two mutations led strain QZ19 to produce D-lactic acid at a titer close to 100 g/L in 48 hours at pH 5.0 and 50° C. in pH-controlled fermentations. In order to evaluate the role of each of these two mutations in the catalysis of pyruvate reduction to D-lactate, GDH/LDH enzyme with either of the two substitutions (D121N or F245S) and the protein with both changes were expressed in E. coli, purified, and their biochemical properties were determined.

The target of data set [2] is Bacillus coagulans glycerol dehydrogenase (GlyDH/GDH), native, strain P4-102B, SEQ ID NO: 3 (Heyndrickxia coagulans, UniProt A0AAN0T381). The data set is classed as biochemical. The note with it: native enzyme. How it is done:
as §1
as §2, with “Combination of these two mutations led strain QZ19 to produce D-lactic acid at a titer close to 100 g/L in 48 hours at pH 5.0 and 50° C. in pH-controlled fermentations.” left out

In the next data set the test system is C[C@@H](O)C(=O)O. Description: Kinetic properties of mutated glycerol dehydrogenase D121N. The data set is classed as biochemical, Bacillus coagulans. The following applies: other: D121N, 55° C., pH 5.0. How it is done:
as §1, §2

Data set [3] concerns CC(=O)C(=O)O. Described as above. The data set is classed as biochemical, Bacillus coagulans. The following applies: other: D121N, 55° C., pH 5.0. The procedure: as §1, §2
Data set [4] has as its system OCC(O)CO. Described as above. The data set is classed as biochemical, Bacillus coagulans. The note with it: other: D121N, 55° C., pH 5.0. The procedure: as §1, §2
The subject of data set [5] is CC(=O)C(=O)O. Put plainly: Kinetic properties of mutated glycerol dehydrogenase F245S. The data set is classed as biochemical, Bacillus coagulans. The following applies: other: F245S, 55° C., pH 5.0. How it is done: as §1, §2
In data set [6] the test system is OCC(O)CO. The description is as above. The data set is classed as biochemical, Bacillus coagulans. The note with it: other: F245S, 55° C., glycerol oxidation, pyruvate reduction or lactate oxidation, pH 5.0. How it is done:
as §1, §2

Substrate in data set [7]: CC(=O)C(=O)O
Description: purified protein, by the assay type. The note with it: other: enzyme with both changes; pH 5.0; 50.0 °C.

Substrate in data set [8]: OCC(O)CO
Description: purified protein, by the assay type. The note with it: other: column head, D121N; 55° C.; pH 5.0; 55.0 °C.

Substrate in data set [9]: OCC(O)CO
Put plainly: purified protein, by the assay type. The note with it: other: Native, 55° C., glycerol oxidation, pyruvate reduction or lactate oxidation, pH 5.0. The data set is classed as biochemical, Bacillus coagulans. The procedure: as §1
as §2, with “Combination of these two mutations led strain QZ19 to produce D-lactic acid at a titer close to 100 g/L in 48 hours at pH 5.0 and 50° C. in pH-controlled fermentations.” left out

Substrate in data set [10]: NC(=O)C1=CN([C@@H]2O[C@H](COP(=O)(O)OP(=O)(O)OC[C@H]3O[C@@H](n4cnc5c(N)ncnc54)[C@H](O)[C@@H]3O)[C@@H](O)[C@H]2O)C=CC1
Description: purified protein, by the assay type. The following applies: other: Native, 55° C., glycerol oxidation, pyruvate reduction or lactate oxidation, pH 5.0.

As to `OCC(O)CO` [Glycerol], in data set [1], the “change in apparent Km for glycerol” value is given as “slight increase”. For the same molecule, the “efficiency at oxidizing glycerol with NAD^+ relative to reducing pyruvate using NADH” value in [2] is “about 1,000 times”.
By kcat is commonly meant the number of substrate molecules converted per active site and unit of time at saturation. A word on the kcat/Km: it is the turnover number divided by the Michaelis constant. Regarding “Bacillus coagulans glycerol dehydrogenase (GlyDH/GDH, native SEQ ID NO: 3) variant D121N (Heyndrickxia coagulans; D121N)”, the kcat with C[C@@H](O)C(=O)O was 1.9 s⁻¹; in the data set on CC(=O)C(=O)O [3] it was 2.0 s⁻¹; with OCC(O)CO [4], 13.2 s⁻¹. Moreover, the kcat/Km in the data set with C[C@@H](O)C(=O)O came to 8 M⁻¹ s⁻¹; with CC(=O)C(=O)O [3] it was 3 M⁻¹ s⁻¹; with OCC(O)CO [4], 100 M⁻¹ s⁻¹.
“Bacillus coagulans glycerol dehydrogenase (GlyDH/GDH, native SEQ ID NO: 3) variant F245S (Heyndrickxia coagulans; F245S)”: the kcat in the data set on CC(=O)C(=O)O [5] was 19.5 s⁻¹; in the data set on OCC(O)CO [6], 62.5 s⁻¹. Moreover, the kcat/Km in the data set with CC(=O)C(=O)O [5] turned out to be 80 M⁻¹ s⁻¹; in the data set with OCC(O)CO [6] it was 800 M⁻¹ s⁻¹.

B1: Bacillus coagulans glycerol dehydrogenase (GlyDH/GDH, native SEQ ID NO: 3) variant F245S, D121N (GlyDH*, strain QZ19, SEQ ID NO: 1) (Heyndrickxia coagulans; … (protein)
chain: MTKIITSPSKFIQGPDELSRLSAYTERLGKKAFIIADDFVTGLVGKTVEESYAGKETGYQMALFGGECSKPEIERLCEMSKSEEADVVVGIGGGKTLDTAKAVGYYNNIPVIVAPTIASTNAPTSALSVIYKENGEFEEYLMLPLNPTFVIMDTKVIASAPARLLVSGMGDALATYFEARATKRANKTTMAGGRVTEAAIALAKLCYDTQILEGLKAKLAAEKHLVTEAVEKIIEANTYLSGIGSESGGLAAAHAIHNGLTVLEETHHMYHGEKVAFGTLAQLILEDAPKAEIEEVVSFCLSVGLPVTLGDLGVKELNEEKLRKVAELSCAEGETIYNMPFEVTPDLVYAAIVTADSVGRYYKEKWA
The Km is the concentration of substrate that gives half-maximal velocity. For the molecule B1, the Michaelis-Menten constant (Km) in [7] was 51000 µM. Also, in [8], the kcat stood at 16.7 s⁻¹ and the specificity constant (kcat/Km) was 100 M⁻¹ s⁻¹.

B2: Bacillus coagulans glycerol dehydrogenase (GlyDH/GDH), native, strain P4-102B, SEQ ID NO: 3 (Heyndrickxia coagulans) (protein)
chain: MTKIITSPSKFIQGPDELSRLSAYTERLGKKAFIIADDFVTGLVGKTVEESYAGKETGYQMALFGGECSKPEIERLCEMSKSEEADVVVGIGGGKTLDTAKAVGYYNNIPVIVAPTIASTDAPTSALSVIYKENGEFEEYLMLPLNPTFVIMDTKVIASAPARLLVSGMGDALATYFEARATKRANKTTMAGGRVTEAAIALAKLCYDTQILEGLKAKLAAEKHLVTEAVEKIIEANTYLSGIGFESGGLAAAHAIHNGLTVLEETHHMYHGEKVAFGTLAQLILEDAPKAEIEEVVSFCLSVGLPVTLGDLGVKELNEEKLRKVAELSCAEGETIYNMPFEVTPDLVYAAIVTADSVGRYYKEKWA
In the case of B2, in data set [9], the kcat stood at 28.0 s⁻¹ and the catalytic efficiency (kcat/Km) is 2400 M⁻¹ s⁻¹. Besides, in data set [10], the Km was 400 µM.
